Substrate in the data set: N[C@@H](CCC(=O)N[C@@H](CSN=O)C(=O)NCC(=O)O)C(=O)O
Briefly: cells, lysate or membranes named. The following applies: other: purified protein from RAW 264.7 cells; pH 8.0.

From patent US8217006B2, “Inhibiting GS-FDH to modulate no bioactivity” (Duke University, priority 2001, dated 2012) come the findings set out here.

B1: mouse GS-FDH (Mus musculus) (protein)
chain: MANQVIRCKAAVAWEAGKPLSIEEIEVAPPKAHEVRIKILATAVCHTDAYTLSGADPEGCFPVILGHEGAGIVESVGEGVTKLKAGDTVIPLYIPQCGECKFCLNPKTNLCQKIRVTQGKGLMPDGTSRFTCKGKSVFHFMGTSTFSEYTVVADISVAKIDPSAPLDKVCLLGCGISTGYGAAVNTAKVEPGSTCAVFGLGGVGLAVIMGCKVAGASRIIGIDINKDKFAKAKEFGASECISPQDFSKSIQEVLVEMTDGGVDYSFECIGNVKVMRSALEAAHKGWGVSVVVGVAASGEEISTRPFQLVTGRTWKGTAFGGWKSVESVPKLVSEYMSKKIKVDEFVTGNLSFDQINQAFDLMHSGDSIRTVLKM
For orientation: Km means the concentration of substrate that gives half-maximal velocity. Take B1: the Michaelis constant (Km) was found to be 20 µM and the kcat is 5,600 min^−1.
